{"source": "patent US20250304624A1", "about": "(published 2025)", "molecular_target": "T1, human ferroportin (SLC40A1) fused in frame with GFP, stably expressed in HEK293 cells (human, UniProt Q9NP59 1-571)", "T1 sequence (looked up)": "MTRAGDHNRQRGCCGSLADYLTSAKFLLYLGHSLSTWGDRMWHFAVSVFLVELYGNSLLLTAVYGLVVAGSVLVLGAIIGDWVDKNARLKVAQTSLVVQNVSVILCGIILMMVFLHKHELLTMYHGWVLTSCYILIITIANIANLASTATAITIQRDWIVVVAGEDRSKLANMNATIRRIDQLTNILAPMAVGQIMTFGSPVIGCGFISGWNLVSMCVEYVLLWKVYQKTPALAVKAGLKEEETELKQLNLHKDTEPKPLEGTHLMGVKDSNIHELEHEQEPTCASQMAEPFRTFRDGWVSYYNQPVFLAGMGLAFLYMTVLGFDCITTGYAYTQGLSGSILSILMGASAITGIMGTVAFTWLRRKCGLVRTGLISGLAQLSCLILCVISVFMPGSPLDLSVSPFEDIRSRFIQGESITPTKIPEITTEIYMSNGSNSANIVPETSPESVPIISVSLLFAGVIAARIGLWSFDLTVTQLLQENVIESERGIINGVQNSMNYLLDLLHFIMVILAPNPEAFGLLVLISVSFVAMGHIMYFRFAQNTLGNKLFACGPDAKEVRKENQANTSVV", "assay": "cell-based or functional assay", "note": "Positions of bridges follow the written chain, without caps; N, C: chain ends. Non-standard residues stand in square brackets, D forms with d. Groups on a side chain read outwards from the residue. *: point of attachment. PEG12 = NCCOCCOCCOCCOCCOCCOCCOCCOCCOCCOCCOCCOCCC(=O)O; Dip = N[C@H](C(=O)O)C(c1ccccc1)c1ccccc1; Palmitoyl = CCCCCCCCCCCCCCCC(=O)*; Isovaleryl = CC(C)CC(=O)*", "data": [{"binder": "Isovaleryl-DIH[Dip]PCI[dK]FK([PEG12-Palmitoyl])[dK]C-NH2 (disulfide 6-12 (inferred))", "note": "[Compd ID 130]", "values": [{"measurement": "FPN IC50", "value": 69, "unit": "nM"}]}]}
